{
  "source": "paper PMC5885141",
  "about": "(Molecular imaging and biology : MIB : the official …, 2014)",
  "key": {"[1]": {"target": "T1, gastrin-releasing peptide receptor (human, UniProt P30550 1-384)", "T1 sequence (P30550 whole entry)": "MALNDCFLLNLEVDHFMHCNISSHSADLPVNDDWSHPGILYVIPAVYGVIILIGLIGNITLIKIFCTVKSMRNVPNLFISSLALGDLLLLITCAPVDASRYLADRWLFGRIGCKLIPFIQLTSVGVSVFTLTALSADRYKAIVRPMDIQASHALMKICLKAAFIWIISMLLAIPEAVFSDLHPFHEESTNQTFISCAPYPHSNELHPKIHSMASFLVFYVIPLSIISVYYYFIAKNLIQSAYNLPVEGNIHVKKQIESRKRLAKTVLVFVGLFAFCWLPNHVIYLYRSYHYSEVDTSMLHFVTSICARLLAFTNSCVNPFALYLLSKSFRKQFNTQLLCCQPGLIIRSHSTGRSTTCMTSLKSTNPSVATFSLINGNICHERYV", "experiment": "radioligand binding"}, "[2]": {"target": "T1, gastrin-releasing peptide receptor", "experiment": "radioligand binding", "remark": "listed apart in the source"}},
  "note": "Where two headings read alike, the source gives them in different places. IR800 = IRDye800CW",
  "data": [
    {"binder": "IR800-GSGQWAVGHLM-NH2", "note": "[IR800-GSG-t-BBN]", "values": [
      {"measurement": "IC50", "setting": "[1]", "result": 56, "unit": "nM"},
      {"measurement": "IC50", "setting": "[2]", "result": 57.4, "unit": "nM"}
    ]}
  ]
}
